Publication PMC12647017, “Discovery and optimization of a synthetic small protein domain targeting antibodies” (Frontiers in Bioengineering and Biotechnology, 2025)

What was measured:
[1] = Solubility / precipitation observed during production, dialysis and purification; format: physicochemical
Protocol: Therefore, after expression the soluble fractions were further centrifuged at 42,000 g for 20 min at 4 °C. As the samples were diluted (∼5 mg/mL in 25 mL lysis buffer), the soluble fractions were lyophilized and resuspended in 4 mL of water. The samples were dialyzed (Membranes Spectra Pre-Treated 1 kDa, Carl Roth) to Binding buffer without imidazole (20 mM Sodium Phosphate, 500 mM Sodium Chloride pH 7.4) for 24 h at 16 °C. The samples were quantified by […] (typically ∼6 mg/mL), this solution was diluted 1:2 in Binding buffer (20 mM Sodium Phosphate, 500 mM Sodium Chloride, 20 mM imidazole pH 7.4) and purified in a gravitational flow with 6 mL of resin (IMAC Sepharose 6 Fast Flow (Ni^2+), Cytiva) packed in a PD-10 column. The column was prepared using the indications of the manufacturer. The binding of the protein to the column was maximized by an incubation for 1 h at room temperature in agitation at 40rpm. The resin was washed 4 x column volumes (CV) with binding buffer. The elution as achieved by incubation for 15min with elution buffers. We used a gradient with 3 x CV elution buffer 1 (binding buffer with 100 mM imidazole) and 3 x CV elution buffer 2 (binding buffer with 200 mM imidazole).
The most enriched elutions in WW domains (60%–70% purity) were combined and dialysed against PBS1x (10 mM Na2HPO4, 1.8 mM KH2PO4, 2.7 mM KCl, 137 mM NaCl pH 7.4) with routine changes of buffer up to 48 h at 16 °C. Following the samples were concentrated with a Amicon-Ultra15 3 kDa MWCO (Millipore) with centrifugation conditions 4,900 g, 30 min, 4 °C. The final samples were quantified by BCA assay.
Size Exclusion Chromatography (SEC). The samples were further purified by SEC to achieve 90% purity in a AKTA system (Cytiva). The column Superdex 75 Increase 10/300 GL (29148721, Cytiva) was washed with water and equilibrated 2CV in PBS1x, as described by the manufacturer. As calibrants we prepare a mixture: 2 mg/mL of Bovine Serum Albumin (66 kDa, BP9702-100, FisherScientific), Ovalbumin (42 kDa, A5503-1G, Sigma), Chicken Lysozyme ([…], 62,971–10G-F, Fluka) and hPin1_WW chemically synthesized (5 kDa, produced in ([Dias et al., 2015])) in PBS 1x, this sample was filtered with 0.2 µm PES (514–0073, VWR) and analysed. The operation conditions: flow 0.5 mL/min, 0.05 CV in PBS1x and injection of 250 µL and run for 2 CV with PBS 1x at 16 °C. The same method was used for the WW domain samples. After purifications samples were quantified for total protein by BCA assay, as described previously and used for characterization.

hIgG = test: ELISA of soluble fractions of native and mutated WW domains against hIgG; format: binding; settings: human IgG, soluble fraction, ABTS
Protocol: The soluble fraction of 100 mL cultures (100 μL) was used for ELISA against hIgG, as described in ([Dias et al., 2025]). Briefly, the target hIgG was immobilized (1 μg/well) in 0.1 M Sodium Bicarbonate pH 8.6 in Immuno Maxisorp ELISA plates (Thermo Fisher), overnight at 4 °C. In the next day, the unbound hIgG was removed, and the wells washed with PBS1x. To the wells was added the blocking solution – 5% (v/v) Soya Milk in PBS 1x and incubated for 1 h at room temperature. The wells were washed and incubated with 100 µL of soluble fraction (∼0.065 mg/mL total protein) at room temperature for 2 h.
The unbound WW domains were removed, and the wells were washed using 4 times PBS1x-0.05% Tween 20 and 1 time with PBS1x. For detection was used 1:1,000 anti-His-HRP conjugated antibody (MA1-21315-HRP, Invitrogen) in 1% (v/v) Soya Milk in PBS1x and incubated for 1 h at RT, after that the wells were washed with 5x PBS1x. The detection occurred with ABTS (2,2′-azino-bis(3-ethylbenzothiazoline-6-sulfonic acid) ready solution (11684302001, Roche), which was incubated in the dark for 1 h at 37 °C. Finally, the results were analysed in a microplate reader (Tecan) with appropriate filter at Abs405nm.
Figure S6 – Production and signal characterization of mutated versions. A – Tris-Tricine gels after cell lysis of the WW prototype sequence (WWp, band at ~8KDa), mutated WWp5_4 scaffold (WWp5_4_M2, band at ~8 kDa) and mutated E6 (E6_M2, band at ~ 12kDa). Samples were normalized 90µg total protein/lane. M - Precision Plus Protein™ Dual Xtra Prestained, Biorad; SF – soluble fraction; ISF – insoluble fraction. B1, B2, and B3 indicate production batchs in 1L culture, except for WWp B1 – 100 mL, WWp_5_4 B2 – 900 mL. Stained with Simplyblue. […] The detection of the clones was made with anti-His conjugated antibody with HRP and detected with ABTS as substrate.
Figure S7 – Comparison between ELISA signal of E6 versus E6_M2. […] The expression levels were detected by direct coating of the microplate well with the soluble fraction of the extract. […] All were detected with ABTS as substrate.

[2] = molecular target: human IgG conjugated with fluorescein isothiocyanate (IgG-FITC) (human); test: MST; IgG-FITC fixed at 50 nM; 16 serial dilutions of E6 from 23.5 uM to 0.7 nM; 50 mM MOPS, 0.05% Tween-20, pH 7; 25 C; fit models Kd and Hill
[3] = molecular target: human IgG conjugated with fluorescein isothiocyanate (IgG-FITC) (human); test: MST; hIgG-FITC (Sigma F9636) fixed at 25 nM; 16 samples of E6_M2_T2 from 695 nM in 1:2 serial dilution; PBS, 0.05% Tween-20, pH 7.4; 25 C; fit models Kd and Hill

C S GK LPPGW E E R KTRRFKLG R TYYYNHHILSKTS Q W EH PR G SS [Clone E6_M2, E6 with mutated framework and N-terminal Cys]
solubility compared with native counterpart E6 ([1]; IMAC purification without chaotropic agents): higher solubility than the native counterpart
precipitation / solubility after dialysis ([1]; dialysis against PBS1x pH 7.4, up to 48 h at 16 °C): some precipitation
binding signal relative to negative control (E. coli Rosetta extract) (hIgG; E6 detected with anti-HA-HRP, E6_M2 and Rosetta extract with anti-His-HRP): 2 times
binding signal relative to scaffold framework (WWp5_4) (hIgG; anti-His-HRP, Abs405nm): 2 times

SMGLPPGWDEYKTRRFKLGKTYYYNHHILSKTSTWTDPRMSS (designed binder) [E6 (lead ligand, WWp5_4 scaffold), without tag]
EC50 [2]: 146 nM
Kd [2]: 133 nM

B1: E6_M2_T2 (head-to-tail dimer of E6_M2) (designed binder)
chain: CSGKLPPGWEERKTRRFKLGRTYYYNHHILSKTSQWEHPRGSSSGKLPPGWEERKTRRFKLGRTYYYNHHILSKTSQWEHPRGSS
EC50 [3]: 157 nM
Kd [3]: 62 nM
